Measured values taken from patent publication US20250011363A1, “OPTIMIZED SHORTENED PEPTIDE THAT BINDS TO ACETYLCHOLINE RECEPTOR, AND USE THEREOF” (SKINMED CO., LTD., priority 2021, published 2025).

biological target: acetylcholine receptor; experiment: SPR, peptide at 10 µM on acetylcholine receptor

| Binder | Binding affinity (RU) |
| --- | --- |
| RGFYK [5mer-68] | 82 RU |
| KRFQK [5mer-359] | 79 RU |
| RLLRK [5mer-63] | 86 RU |
| RQLCK [5mer-360] | 66 RU |
| RQLYR [5mer-67] | 86 RU |
| KLYRR [5mer-72] | 50 RU |
| KVQTK [5mer-75] | 63 RU |
| KSRTR [5mer-80] | 83 RU |
| RWFLR [5mer-79] | 82 RU |
| KQRLK [5mer-362] | 62 RU |
| KLQSK [5mer-71] | 68 RU |
| RQRYK [5mer-82] | 84 RU |
| KWRQK [5mer-77] | 74 RU |
| RSRSR [5mer-69] | 50 RU |
| RWITR [5mer-364] | 62 RU |
| KGFSR [5mer-83] | 64 RU |
| KRVRK [5mer-363] | 59 RU |

| Binder | Binding affinity (RU) |
| --- | --- |
| RQITK [5mer-74] | 87 RU |
| RLILK [5mer-61] | 66 RU |
| KRLLR [5mer-66] | 80 RU |
| RSYQR [5mer-361] | 58 RU |
| RQIRR [5mer-65] | 67 RU |
| RVVRR [5mer-84] | 67 RU |
| RRLCK [5mer-86] | 55 RU |
| KVICK [5mer-78] | 79 RU |
| KQLTK [5mer-62] | 70 RU |
| KLQYR [5mer-59] | 68 RU |
| RLLQR [5mer-70] | 69 RU |
| RLFTK [5mer-60] | 86 RU |
| RGIYR [5mer-81] | 79 RU |
| RGYRR [5mer-76] | 80 RU |
| RQITR [5mer-87] | 55 RU |
| KGVLK [5mer-85] | 74 RU |
| KVVTR [5mer-64] | 76 RU |

Next, values leading:

| Binding affinity (RU) | Binder |
| --- | --- |
| 84 RU | RGFTR [5mer-369] |
| 79 RU | KSRLR [5mer-379] |
| 62 RU | RLRQR [5mer-382] |
| 56 RU | RWQRK [5mer-383] |
| 75 RU | KSLRK [5mer-384] |
| 71 RU | RSVQK [5mer-367] |
| 52 RU | KRRYK [5mer-365] |
| 87 RU | KGQRR [5mer-381] |
| 87 RU | KVFTK [5mer-373] |
| 82 RU | KRYLK [5mer-380] |
| 84 RU | KQLCR [5mer-375] |
| 54 RU | RSVCR [5mer-372] |
| 75 RU | KLFTR [5mer-374] |
| 52 RU | RRILR [5mer-387] |
| 50 RU | KRIRR [5mer-368] |
| 67 RU | KGFYK [5mer-377] |
| 78 RU | RSFLK [5mer-386] |
| 51 RU | RGVYR [5mer-385] |
| 52 RU | RQLQK [5mer-366] |
| 86 RU | RGISK [5mer-371] |
| 67 RU | KWRRK [5mer-370] |
| 65 RU | RRLSK [5mer-378] |
| 65 RU | KGQLR [5mer-376] |
